Data as given in patent US20180369373A1 (INNATE PHARMA, published 2018).

Target: T1, human NKp46 (isoform a), expressed on cells (human, UniProt O76036 22-304)
T1 construct: also called huNKp46; Raji-huNKp46 Low
Assay: IHC on FFPE cell pellets (Raji transfectants, SNK6) and human spleens, antibody at 5 and 10 pg/ml as printed

T1 sequence (O76036 22-304 Q82K limits assumed): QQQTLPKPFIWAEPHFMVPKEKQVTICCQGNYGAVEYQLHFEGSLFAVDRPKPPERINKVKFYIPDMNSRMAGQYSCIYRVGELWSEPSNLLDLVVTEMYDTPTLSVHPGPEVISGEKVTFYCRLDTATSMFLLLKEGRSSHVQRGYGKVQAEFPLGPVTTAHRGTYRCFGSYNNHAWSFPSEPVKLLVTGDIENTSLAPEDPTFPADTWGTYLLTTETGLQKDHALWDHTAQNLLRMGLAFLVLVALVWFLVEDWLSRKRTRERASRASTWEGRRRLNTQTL

binding result: binds
B1: 8E5B antibody (antibody, mouse IgG1, V domains shown)
VH: EIQLQQSGAELVKPGASVKLSCTASGFNIKDTYFHWVKQRPEQGLEWIGRIDPANGNTKYDPKFHDKATIIADISSNTAYLQFSSLTSEDTAVYYCAANRYGYWGQGTTLTVSS
VL: DIVMTQAAPSIPVTPGESVSISCRSSKSLLYINGNTHLFWFLQRPGQSPQLLIYRMSNLASGVPDRFSGSGSGTAFTLRISRVEAEDVGVYYCMQHLEYPFTFGSGTKLEIK
notes: Mouse monoclonal antibody; also called 8E5-B clone; monoclonal antibody 8E5B
